This is an account of results in publication PMC11685456, “Structural insights into GrpEL1-mediated nucleotide and substrate release of human mitochondrial Hsp70” (Nature Communications, 2024).

Positions count from the first letter of the chain named. Names and notes keep the numbering of the source.

In data set [1] the target is T1, human mortalin R126W (mitochondrial Hsp70, HSPA9), without its mitochondrial targeting sequence (human, UniProt P38646 47-679, R126W).
T1 construct: mortalin (mitochondrial Hsp70, HSPA9), human; printed mass 70.2 kDa; R126W is associated with EVEN-PLUS syndrome; residues 46-639 were modelled in the cryo-EM map; No tag removal is described; also called Hsmortalin_(R126W); mtHsp70; source: E. coli LOBSTR, co-expressed with HsHep1, purified (HisTrap, HiTrap Q, Superdex 200)
Kind of data set: SEC-MALS; the mortalin_(R126W)-GrpEL1 complex; 152.5 kDa species. The settings on record: both partners purified.

Data set [2] concerns the molecule itself. Kind of data set: cryo-EM structure; high molecular weight SEC peak concentrated and vitrified on UltraAuFoil grids; Titan Krios G4, 300 keV; nucleotide-free complexes.
The target of data set [3] is T1, human mortalin R126W (mitochondrial …). Kind of data set: SEC; purified mortalin (20 uM), GrpEL1 (40 uM) and Pam16/Pam18 chimera (12 uM) incubated 1 h at room temperature, then Superdex 200 Increase 10/300 GL in 20 mM Tris pH 8, 150 mM KCl, 0.5 mM TCEP; fractions seen by SDS-PAGE. The settings on record: both partners purified.

T1 sequence (P38646 47-679 R126W): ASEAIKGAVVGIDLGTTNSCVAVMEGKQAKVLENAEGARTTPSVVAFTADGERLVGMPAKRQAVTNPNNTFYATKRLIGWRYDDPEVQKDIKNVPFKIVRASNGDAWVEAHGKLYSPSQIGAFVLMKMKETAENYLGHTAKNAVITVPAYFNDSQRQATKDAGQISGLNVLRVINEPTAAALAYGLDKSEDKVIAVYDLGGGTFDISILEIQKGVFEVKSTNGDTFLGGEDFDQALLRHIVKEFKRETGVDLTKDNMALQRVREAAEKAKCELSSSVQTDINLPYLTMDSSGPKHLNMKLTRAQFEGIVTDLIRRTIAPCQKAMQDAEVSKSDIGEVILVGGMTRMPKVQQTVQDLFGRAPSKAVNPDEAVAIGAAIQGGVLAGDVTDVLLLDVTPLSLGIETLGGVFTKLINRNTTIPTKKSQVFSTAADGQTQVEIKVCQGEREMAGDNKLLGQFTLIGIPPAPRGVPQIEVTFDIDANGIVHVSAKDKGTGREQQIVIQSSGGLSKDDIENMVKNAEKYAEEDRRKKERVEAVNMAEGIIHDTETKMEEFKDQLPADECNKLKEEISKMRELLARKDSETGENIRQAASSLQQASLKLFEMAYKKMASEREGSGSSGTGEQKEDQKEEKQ

B1: human GrpEL1 wild type, without its mitochondrial targeting sequence (natural protein, UniProt Q9HAV7 28-217, looked up)
chain: CTATKQKNSGQNLEEDMGQSEQKADPPATEKTLLEEKVKLEEQLKETVEKYKRALADTENLRQRSQKLVEEAKLYGIQAFCKDLLEVADVLEKATQCVPKEEIKDDNPHLKNLYEGLVMTEVQIQKVFTKHGLLKLNPVGAKFDPYEHEALFHTPVEGKEPGTVALVSKVGYKLHGRTLRPALVGVVKEA
notes: GrpEL1, human mitochondrial nucleotide exchange factor; printed mass 25.5 kDa a protomer; Homodimer; no tag removal is described; also called GrpEL1WT; HsGrpEL1; source: E. coli LOBSTR, purified (Ni Sepharose, Strep-Tactin, Superdex 200)
With B1, the “stoichiometry N” value was 2 GrpEL1 per mortalin in data set [1] and 2 in data set [2].

B2: human GrpEL1 Y173A, without its mitochondrial targeting sequence (natural protein, UniProt Q9HAV7 28-217, looked up)
chain: B1 chain with Y146A
notes: GrpEL1, human; Two protomers (GrpEL1-A and GrpEL1-B) were modelled in the Y173A structures; also called HsGrpEL1_(Y173A); source: E. coli LOBSTR, purified as GrpEL1WT (Ni Sepharose, Strep-Tactin, Superdex 200)
For the molecule B2, the binding result in data set [2] and in data set [3] was “binds” in each case.
